Drawing on the supplement of paper PMC10567573, this text covers protein stability index for 94 variants.

B1: PDZK1 (parent)
chain: RETASLKLLPHQPRIVEMKKGSNG
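Further: lentivirally expressed fusions sorted by FACS into six bins by GFP to DsRed ratio, PSI derived from sequencing read proportions per bin multiplied by bin number.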

In this series the parent is B1. Put plainly: protein stability index of a GFP-peptide fusion (GPS, HEK-293T) (PSI 1-6); higher = more stable. The note with it: c terminus: a fixed tail appended.
For RETASLKLLPHQPRPVEMKKGSNG, the protein stability index is 4.39.
Take RETASLKLLPHQPRAVEMKKGSNG: the protein stability index came to 4.78.
As for RETASLKLLPHQPREVEMKKGSNG, the figure is 5.02; as for RETASLKLLPHQPRKVEMKKGSNG, 4.75; as for RETASLKLLPHQPRCVEMKKGSNG, 4.3.
Next, RETASLKLLPHQPRRVEMKKGSNG: 4.51; RETASLKLLPHQPRMVEMKKGSNG: 3.89; RETASLKLLPHQPRFVEMKKGSNG: 3.44.
Next, RETASLKLLPHQPRDVEMKKGSNG: 4.66; RETASLKLLPHQPRQVEMKKGSNG: 4.72.
As to RETASLKLLPHQPRNVEMKKGSNG, the protein stability index was determined as 4.99.
Next, RETASLKLLPHQPRLVEMKKGSNG: 4.16; RETASLKLLPHQPRGVEMKKGSNG: 5.16.
As to RETASLKLLPHQPKIVEMKKGSNG, the protein stability index turned out to be 3.38.
As for RETASLKLLPHQPIIVEMKKGSNG, the protein stability index worked out at 3.86.
Next, RETASLKLLPHQPCIVEMKKGSNG: 3.63.
Regarding RETASLKLLPHQPWIVEMKKGSNG, the protein stability index is 3.3.
As for RETASLKLLPHQPNIVEMKKGSNG, the figure is 4.13; as for RETASLKLLPHQPEIVEMKKGSNG, 4.07.
Take RETASLKLLPHQPTIVEMKKGSNG: the protein stability index is 4.22.
Next, RETASLKLLPHQPAIVEMKKGSNG: 4.25.
Next, RETASLKLLPHQPMIVEMKKGSNG: 2.93; RETASLKLLPHQPSIVEMKKGSNG: 3.87.
As for RETASLKLLPHQPDIVEMKKGSNG, the figure is 4.61; as for RETASLKLLPHQPGIVEMKKGSNG, 4.05.
Take RETASLKLLPHQPYIVEMKKGSNG: the protein stability index was found to be 3.34.
Take RETASLKLLPHQPHIVEMKKGSNG: the protein stability index was determined as 3.7.
On to RETASLKLLLHQPRIVEMKKGSNG, for which the protein stability index came to 2.88.
Next, RETASLKLLTHQPRIVEMKKGSNG: 2.98; RETASLKLLWHQPRIVEMKKGSNG: 2.82; RETASLKLLVHQPRIVEMKKGSNG: 2.76.
For RETASLKLLIHQPRIVEMKKGSNG, the protein stability index amounted to 2.43.
Next, RETASLKLLMHQPRIVEMKKGSNG: 2.89; RETASLKLLYHQPRIVEMKKGSNG: 2.99; RETASLKLLQHQPRIVEMKKGSNG: 3.02.
For RETASLKLLRHQPRIVEMKKGSNG, the protein stability index was found to be 3.56.
For the variant RETASLKLLKHQPRIVEMKKGSNG, the protein stability index was 3.62.
RETASLKLLSHQPRIVEMKKGSNG: the protein stability index is 3.48.
With RETASLKLLPHEPRIVEMKKGSNG, the protein stability index was 2.88.
In the case of RETASLKLLPHKPRIVEMKKGSNG, the protein stability index stood at 3.66.
For the variant RETASLKLLPHRPRIVEMKKGSNG, the protein stability index came to 3.65.
Next, RETASLKLLPHGPRIVEMKKGSNG: 3.62.
As for RETASLKLLPHMPRIVEMKKGSNG, the figure is 3.38; as for RETASLKLLPHWPRIVEMKKGSNG, 3.2.
Consider RETASLKLLPHFPRIVEMKKGSNG, for which the protein stability index is 2.97.
As for RETASLKLLPHPPRIVEMKKGSNG, the figure is 4.03; as for RETASLKLLPHTPRIVEMKKGSNG, 3.26; as for RETASLKLLPHAPRIVEMKKGSNG, 3.54.
For the variant RETASLKLLPHHPRIVEMKKGSNG, the protein stability index is 3.97.
As for RETASLKLLPHIPRIVEMKKGSNG, the figure is 2.85; as for RETASLKLLPHNPRIVEMKKGSNG, 3.84; as for RETASLKLLPHSPRIVEMKKGSNG, 4.05.
As for RETASLKLLPHVPRIVEMKKGSNG, the protein stability index stood at 3.09.
Next, RETASLKLLPHLPRIVEMKKGSNG: 3.27; RETASLKLLPHCPRIVEMKKGSNG: 3.27.
RETASLKLLPHDPRIVEMKKGSNG: the protein stability index was 3.3.
As for RETASLKLLPQQPRIVEMKKGSNG, the figure is 3.23.
As for RETASLKLLPWQPRIVEMKKGSNG, the figure is 3.29.
As for RETASLKLLPGQPRIVEMKKGSNG, the figure is 3.38; as for RETASLKLLPPQPRIVEMKKGSNG, 3.25.
As for RETASLKLLPNQPRIVEMKKGSNG, the protein stability index stood at 3.38.
As to RETASLKLLPLQPRIVEMKKGSNG, the protein stability index came out at 3.14.
Next, RETASLKLLPVQPRIVEMKKGSNG: 2.59.
Next, RETASLKLLPYQPRIVEMKKGSNG: 3.5; RETASLKLLPFQPRIVEMKKGSNG: 3.27; RETASLKLLPCQPRIVEMKKGSNG: 3.47.
As to RETASLKLLPMQPRIVEMKKGSNG, the protein stability index amounted to 2.75.
As to RETASLKLLPTQPRIVEMKKGSNG, the protein stability index stood at 3.73.
As for RETASLKLLPRQPRIVEMKKGSNG, the figure is 3.35; as for RETASLKLLPIQPRIVEMKKGSNG, 3.59.
As for RETASLKLLPDQPRIVEMKKGSNG, the figure is 2.35; as for RETASLKLLPEQPRIVEMKKGSNG, 3.08.
Next, RETASLKLLPAQPRIVEMKKGSNG: 2.57.
Regarding RETASLKLLPSQPRIVEMKKGSNG, the protein stability index was found to be 3.52.
As for RETASLKLLPKQPRIVEMKKGSNG, the figure is 3.53; as for RETASLKLLPHQNRIVEMKKGSNG, 3.67; as for RETASLKLLPHQSRIVEMKKGSNG, 3.92.
As for RETASLKLLPHQHRIVEMKKGSNG, the figure is 3.73; as for RETASLKLLPHQVRIVEMKKGSNG, 4.14; as for RETASLKLLPHQIRIVEMKKGSNG, 3.29.
Next, RETASLKLLPHQQRIVEMKKGSNG: 4.81; RETASLKLLPHQLRIVEMKKGSNG: 4.35.
As to RETASLKLLPHQMRIVEMKKGSNG, the protein stability index is 3.88.
Next, RETASLKLLPHQDRIVEMKKGSNG: 4.22.
Consider RETASLKLLPHQFRIVEMKKGSNG, for which the protein stability index is 3.63.
As for RETASLKLLPHQYRIVEMKKGSNG, the figure is 3.4.
Next, RETASLKLLPHQTRIVEMKKGSNG: 3.99; RETASLKLLPHQCRIVEMKKGSNG: 2.35.
As for RETASLKLLPHQARIVEMKKGSNG, the figure is 4.09; as for RETASLKLLPHQRRIVEMKKGSNG, 3.77.
For RETASLKLLPHQERIVEMKKGSNG, the protein stability index was determined as 4.4.
Next, RETASLKLLPHQGRIVEMKKGSNG: 4.14.
As for RETASLKLLPHQWRIVEMKKGSNG, the figure is 3.25.
As for RETASLKLLPHQKRIVEMKKGSNG, the figure is 4.07.
